Measurements taken from patent US20030082682A1 (published 2003).

T1: RXR interacting protein, RB204 (human, UniProt O75064 240-1496, limits assumed)
T1 construct: Prey clone from a two-hybrid cDNA library (human bone and cartilage cells) in a vector derived from pJG4-5
T1 sequence: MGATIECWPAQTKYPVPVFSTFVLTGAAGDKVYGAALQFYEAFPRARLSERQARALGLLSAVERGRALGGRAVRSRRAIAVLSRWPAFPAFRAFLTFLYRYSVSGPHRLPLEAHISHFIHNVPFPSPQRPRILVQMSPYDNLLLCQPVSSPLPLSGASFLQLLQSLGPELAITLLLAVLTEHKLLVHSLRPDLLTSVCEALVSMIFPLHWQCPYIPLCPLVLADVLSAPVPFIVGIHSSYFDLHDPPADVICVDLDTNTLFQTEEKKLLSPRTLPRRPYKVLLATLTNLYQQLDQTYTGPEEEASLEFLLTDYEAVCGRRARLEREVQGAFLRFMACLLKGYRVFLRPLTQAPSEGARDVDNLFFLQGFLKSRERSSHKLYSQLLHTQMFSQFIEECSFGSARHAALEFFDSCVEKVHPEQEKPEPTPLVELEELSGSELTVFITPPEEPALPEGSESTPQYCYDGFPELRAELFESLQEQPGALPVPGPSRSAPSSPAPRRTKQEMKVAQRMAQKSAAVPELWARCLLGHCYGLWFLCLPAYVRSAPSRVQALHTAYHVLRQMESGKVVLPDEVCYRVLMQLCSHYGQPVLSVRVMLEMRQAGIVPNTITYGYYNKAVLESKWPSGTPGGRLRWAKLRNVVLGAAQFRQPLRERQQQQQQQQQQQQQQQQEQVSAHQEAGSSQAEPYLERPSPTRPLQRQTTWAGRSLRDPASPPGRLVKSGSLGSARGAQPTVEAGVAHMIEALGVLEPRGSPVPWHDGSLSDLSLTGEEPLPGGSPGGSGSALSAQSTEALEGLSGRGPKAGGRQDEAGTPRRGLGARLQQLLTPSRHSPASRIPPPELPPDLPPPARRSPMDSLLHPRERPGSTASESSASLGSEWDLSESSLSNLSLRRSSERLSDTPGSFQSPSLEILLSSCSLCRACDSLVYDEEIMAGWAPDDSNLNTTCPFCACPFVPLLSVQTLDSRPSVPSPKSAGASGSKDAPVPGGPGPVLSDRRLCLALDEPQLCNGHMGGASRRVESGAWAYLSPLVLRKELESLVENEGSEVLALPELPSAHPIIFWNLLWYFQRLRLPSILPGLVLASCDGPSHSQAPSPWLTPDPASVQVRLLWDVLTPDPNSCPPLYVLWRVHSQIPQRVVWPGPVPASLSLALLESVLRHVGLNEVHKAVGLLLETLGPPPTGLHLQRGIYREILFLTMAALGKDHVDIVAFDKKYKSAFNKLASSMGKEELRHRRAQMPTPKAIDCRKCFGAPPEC

B1: HNF4g (receptor, UniProt Q14541 99-408, looked up)
chain: SNIPSINTLAQAEVRSRQISVSSPGSSTDINVKKIASIGDVCESMKQQLLVLVEWAKYIPAFCELPLDDQVALLRAHAGEHLLLGATKRSMMYKDILLLGNNYVIHRNSCEVEISRVANRVLDELVRPFQEIQIDDNEYACLKAIVFFDPDAKGLSDPVKIKNMRFQVQIGLEDYINDRQYDSRGRFGELLLLLPTLQSITWQMIEQIQFVKLFGMVKIDNLLQEMLLGGASNDGSHLHHPMHPHLSQDPLTGQTILLGPMSTLVHADQISTPETPLPSPPQGSGQEQYKIAANQASVISHQHLSKQKQL
notes: Member of the panel of nuclear hormone receptors in the directed two-hybrid analysis; the construct is not described
B2: PPARd (receptor, UniProt Q03181 139-441, looked up)
chain: SHNAIRFGRMPEAEKRKLVAGLTANEGSQYNPQVADLKAFSKHIYNAYLKNFNMTKKKARSILTGKASHTAPFVIHDIETLWQAEKGLVWKQLVNGLPPYKEISVHVFYRCQCTTVETVRELTEFAKSIPSFSSLFLNDQVTLLKYGVHEAIFAMLASIVNKDGLLVANGSGFVTREFLRSLRKPFSDIIEPKFEFAVKFNALELDDSDLALFIAAIILCGDRPGLMNVPRVEAIQDTILRALEFHLQANHPDAQYLFPKLLQKMADLRQLVTEHAQMMQRIKKTETETSLHPLLQEIYKDMY
notes: as for B1
B3: ERb (receptor, UniProt Q92731 248-530, looked up)
chain: SGGHAPRVRELLLDALSPEQLVLTLLEAEPPHVLISRPSAPFTEASMMMSLTKLADKELVHMISWAKKIPGFVELSLFDQVRLLESCWMEVLMMGLMWRSIDHPGKLIFAPDLVLDRDEGKCVEGILEIFDMLLATTSRFRELKLQHKEYLCVKAMILLNSSMYPLVTATQDADSSRKLAHLLNAVTDALVWVIAKSGISSQQQSMRLANLLMLLSHVRHASNKGMEHLLNMKCKNVVPVYDLLLEMLNAHVLRGCKSSITGSECSPAEDSKSKEGSQNPQSQ
notes: as for B1
B4: PPARa (receptor, UniProt Q07869 167-468, looked up)
chain: SHNAIRFGRMPRSEKAKLKAEILTCEHDIEDSETADLKSLAKRIYEAYLKNFNMNKVKARVILSGKASNNPPFVIHDMETLCMAEKTLVAKLVANGIQNKEAEVRIFHCCQCTSVETVTELTEFAKAIPGFANLDLNDQVTLLKYGVYEAIFAMLSSVMNKDGMLVAYGNGFITREFLKSLRKPFCDIMEPKFDFAMKFNALELDDSDISLFVAAIICCGDRPGLLNVGHIEKMQEGIVHVLRLHLQSNHPDDIFLFPKLLQKMADLRQLVTEHAQLVQIIKKTESDAALHPLLQEIYRDMY
notes: as for B1

target: T1, RXR interacting protein, RB204; test: two-hybrid, directed analysis against a panel of nuclear hormone receptors
Procedure: Screening was performed as per standard protocols (Golemis et al., Current protocols in molecular biology, 20.0.1,1999). […] RB204 interacts weakly with ERa in the presence of estradiol. Sequence analysis identified an LXXLL nuclear hormone interaction motif within the RB204 open reading frame.

binding result | Binder
no binding | B1
no binding | B2
no binding | B3
no binding | B4
